Measurements reported in patent US10682419B2, “Prodrugs of peptide epoxy ketone protease inhibitors” (Onyx Therapeutics, Inc., priority 2012, dated 2020).

How the values were obtained:
[1] = Pharmacokinetic comparison of Compound A and prodrug in mouse; format: in vivo
[2] = Conversion of PEG conjugates to drug in human plasma; format: in vitro ADME

Row | SMILES | [Cmpd A] (μM) at 1 hr ([1]; time 1 hr) [µM] | [Cmpd A] (μM) at 4 hr ([1]; time 4 hr, BLOQ = below level of quantitation) | [Cmpd A] (μM) at 6 hr ([1]; time 6 hr, BLOQ = below level of quantitation) | [Cmpd A] (μM) at 24 hr ([1]; time 24 hr, BLOQ = below level of quantitation) | Conversion to drug in Human Plasma (%) 2 min [2] [%] | Conversion to drug in Human Plasma (%) 30 min [2] [%] | Conversion to drug in Human Plasma (%) 1 hr [2] [%] | Conversion to drug in Human Plasma (%) 2 hr [2] [%] | Conversion to drug in Human Plasma (%) 4 hr [2] [%]
1 | CC(C)C[C@H](NC(=O)[C@H](CCc1ccccc1)NC(=O)CN1CCOCC1)C(=O)N[C@@H](Cc1ccccc1)C(=O)N[C@@H](CC(C)C)C(=O)[C@@]1(C)CO1 [Cmpd A, (S)-4-methyl-N—((S)-1-(((S)-4-methyl-1-((R)-2-methyloxiran-2-yl)-1-oxopentan-2-yl)amino)-1-oxo-3-phenylpropan-2-yl)-2-((S)-2-(2-morpholinoacetamido)-4-phenylbutanamido)pentanamide] | 0.008 | BLOQ | BLOQ | BLOQ |  |  |  |  | 
2 | COCCOCCOCCOCCOCCOCCOCCOCCn1cc(COCCCS(=O)(=O)OCC(C)(O)C(=O)[C@H](CC(C)C)NC(=O)[C@H](Cc2ccccc2)NC(=O)[C@H](CC(C)C)NC(=O)[C@H](CCc2ccccc2)NC(=O)CN2CCOCC2)nn1 (some centres unmarked) |  |  |  |  | 2 | 18 | 58 | 90 | 80
3 | COCCOCCOCCOCCOCCOCCOCCOCCn1cc(CNC(=O)c2cccc(S(=O)(=O)OCC(C)(O)C(=O)[C@H](CC(C)C)NC(=O)[C@H](Cc3ccccc3)NC(=O)[C@H](CC(C)C)NC(=O)[C@H](CCc3ccccc3)NC(=O)CN3CCOCC3)c2)nn1 (some centres unmarked) |  |  |  |  | 7 | 63 | 100 | 95 | 80
